Results taken from patent publication US20150203579A1 (Regeneron, published 2015).

Key:
[1] = molecular target: T1, monkey PD-1 with mFc (monkey); experiment: SPR, captured mAb, 37 C;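 further: Real-time Biacore surface plasmon resonance biosensor readout of PD-1 reagent binding to purified anti-PD-1 monoclonal antibodies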
T1 construct: also called monkey PD-1-mFc; monkey PD-1 dimer
T1 chain: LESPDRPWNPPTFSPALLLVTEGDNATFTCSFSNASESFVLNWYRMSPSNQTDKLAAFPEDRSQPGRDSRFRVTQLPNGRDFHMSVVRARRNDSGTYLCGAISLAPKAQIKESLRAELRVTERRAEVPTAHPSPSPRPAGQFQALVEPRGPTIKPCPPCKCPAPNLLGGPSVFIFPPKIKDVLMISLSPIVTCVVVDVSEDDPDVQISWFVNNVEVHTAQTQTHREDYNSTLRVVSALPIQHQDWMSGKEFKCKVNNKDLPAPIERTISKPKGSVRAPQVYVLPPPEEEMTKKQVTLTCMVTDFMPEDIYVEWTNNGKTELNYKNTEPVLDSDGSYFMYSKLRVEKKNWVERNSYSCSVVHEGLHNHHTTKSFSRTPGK

[2] = molecular target: T2, full length human PD-1 on HEK293/hPD-1 cells (human, UniProt Q15116 25-288); experiment: FACS dose response, HEK293/hPD-1 cells
[3] = molecular target: T3, recombinant human PD-L1 expressed with a C-terminal mouse IgG2a Fc tag (human); experiment: SPR Biacore 3000: 500 nM mAb alone (no hPD-1.hFc) over captured hPD-L1.mFc surface, control
T3 construct: also called hPD-L1-mFc; hPD-L1.mFc

[4] = molecular target: T4, recombinant human PD-1 dimer expressed with a C-terminal mouse IgG2a Fc tag (human); experiment: competition ELISA: 1.5 nM hPD-1-mFc to coated hPD-L1-hFc; * below theoretical bottom 7.5E-10 M
T4 construct: also called hPD-1-mFc

[5] = molecular target: T5, recombinant human PD-1 expressed with a C-terminal human IgG1 Fc tag (human); experiment: SPR Biacore 3000: 100 nM hPD-1.hFc + 500 nM mAb to captured hPD-L1.mFc;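 further: inhibition study with anti-PD-1 mAbs, SPR responses tracked in real time and read at the close of each step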
T5 construct: also called hPD-1-hFc; hPD1-hFc

[6] = molecular target: T6, dimeric biotinylated human PD-1 protein with a C-terminal human Fc tag (human, biotinylated (sites not given)); experiment: competition ELISA: 200 pM biot-hPD-1-hFc to coated hPD-L1-mFc; * below theoretical bottom 1.0E-10 M
T6 construct: also called biot-hPD-1-hFc

[7] = molecular target: T2, full length human PD-1 on HEK293/hPD-1 …; experiment: FACS, 100 nM mAb, HEK293/hPD-1 cells;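 further: antibodies incubated with cells for 15-30 min on ice, bound antibody detected through a secondary F(ab′)2 by flow cytometry, with parental HEK293 cells tested in parallel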
[8] = molecular target: T2, full length human PD-1 on HEK293/hPD-1 …; experiment: FACS, 100 nM mAb
[9] = molecular target: T1, monkey PD-1 with mFc; experiment: SPR, captured mAb, 25 C;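 further: purified anti-PD-1 antibodies tested on Biacore 4000 or T200 instruments, rate constants obtained via 1:1 binding model fit, with KD as kd/ka and half-life as ln2/(60·kd)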
[10] = molecular target: T6, dimeric biotinylated human PD-1 protein …; experiment: competition ELISA: 200 pM biot-hPD-1-hFc to coated hPD-L1-mFc
[11] = molecular target: T4, recombinant human PD-1 dimer expressed …; experiment: competition ELISA: 1.5 nM hPD-1-mFc to coated hPD-L1-hFc
[12] = molecular target: PD-1 chimera: extracellular domain of human PD-1 with trans-membrane and cytoplasmic domains of human CD300a, … (human, UniProt Q9UGN4 181-299, limits assumed); experiment: cell-based or functional assay
[13] = molecular target: T4, recombinant human PD-1 dimer expressed …; experiment: BLI Octet: 100 nM hPD-1-mFc + 500 nM mAb to captured hPD-L1-hFc

| Binder | 100 nM Monkey PD-1-mFc Bound (RU) [1] [RU] | Kd [1] [pM] | koff [1] [s⁻¹] | kon [1] [M⁻¹ s⁻¹] | t1/2 [1] [min] | EC50 [2] [pM] | Max Geom. Mean MFI @ 100 nM [2] [MFI] | 500 nM of anti-PD-1 monoclonal antibody (RU) [3] [RU] | IC50 [4] [pM] | % Blocking [5] [%] | binding of the mixture (RU) [5] [RU] | IC50 [6] [pM] | MFI [7] [MFI] | ratio of MFI HEK293/hPD-1 to HEK293 parental cells [8] | % blocking at 50 nM antibody [10] [%] | % blocking at 200 nM antibody [11] [%] | Concentration (M) of Antibody at 150% activation [12] [M] | Emax mean [%] @ 100 nM [12] [%] | % Blocking [13] [%] | binding of the mixture (nm) [13] [nm] | also measured |
| --- | --- | --- | --- | --- | --- | --- | --- | --- | --- | --- | --- | --- | --- | --- | --- | --- | --- | --- | --- | --- | --- |
| H4xH9035P (antibody, V domains shown, human IgG4 Fc with 2 or more amino acid changes (US20100331527); also called H4xH9035P2) VH: EVQLVESGGRVVRPGGSLRLSCAASGFTFDDYGMSWVRQLPGKGLEWVAGISWNDGKTVYAESVKGRFIISRDNAKNSLHLEMNSLRAEDTALYYCARDWQYLIDRYFDFWGQGTLVTVSS VL: not shown | 40 | 1700 | 0.000623 | 367000 | 19 | 115 | 28700 | -3 | 620 | 104 | -4 | 80 | 9920 | 91.7 | 95 | 99 | 1.2e-09 | 227 |  |  | 100 nM Monkey PD-1-mFc Bound (RU) [9]: 78 RU; Kd [9]: 460 pM; koff [9]: 9.96e-05 s⁻¹; kon [9]: 216000 M⁻¹ s⁻¹; t1/2 [9]: 116 min |
| H4xH9034P (antibody, V domains shown, human IgG4 Fc with 2 or more amino acid changes (US20100331527); also called H4xH9034P2) VH: EVQLVESGGGVVRPGGSLRLSCTASGFTFDDYGMSWVRQAPGKGLEWISGIGWTGGRSSYADSVRGRFTISRDNAKNSLYLQMNSLGAEDTALYYCARDRQWLVQWYFDYWGQGTLVTVSS VL: not shown | 81 | 2440 | 0.000749 | 307000 | 15 | 209 | 32400 | -4 | 510 | 105 | -5 | 66 | 10100 | 69 | 96 | 98 | 2.62e-09 | 202 |  |  | 100 nM Monkey PD-1-mFc Bound (RU) [9]: 95 RU; Kd [9]: 818 pM; koff [9]: 0.000166 s⁻¹; kon [9]: 203000 M⁻¹ s⁻¹; t1/2 [9]: 70 min |
| H2aM7788N (antibody, V domains shown, human variable regions, mouse IgG2a Fc; also called H2M7788N) VH: EVQLVESGGGLVQPGGSLRLSCGASGFTFRNYDMHWVRQITGKGLEWVSAIGSAGDTYYPDSVKGRFTISRENAKNSLYLQMNSLRVGDTAVYYCTRDIHCSSTRCYGMDVWGQGTTVTVSS VL: not shown |  |  |  |  |  | 321 | 14800 |  | 220 |  |  | 65 | 23100 | 75.7 | 100 | 74 | 4.72e-09 | 189 | 100 | 0 |  |
| H1M7799N (antibody, V domains shown, human variable regions, mouse IgG1 Fc) VH: EVQLVESGGGLVQPGGSLRLSCAASGFTVSNNYMSWVRQAPGKGLEWVSVIYSGGFTYYTDSVKGRFTISRHNSKNTLYLQMNSLRAEDTAVYYCARYYYDTSDYWTFFDYWGQGTLVTVSS VL: EIVMTQSPATLSVSPGERATLSCRASQSVSSNLAWYQQKPGQAPRLLIYGASTRATGIPARFSGSGSGTEFTLTISSLQSGDFAVYYCQQYNNWPLTFGGGTKVEIN |  |  |  |  |  | 33.2 | 24400 |  | 220 |  |  | 59 | 6860 | 26.9 | 100 | 82 | 2.97e-08 | 183 | 100 | 0 |  |
| H1M7800N (antibody, V domains shown, human variable regions, mouse IgG1 Fc) VH: EVQLVESGGGLVQPGGSLRLSCAASGFTVSNNYMSWVRQAPGKGLEWVSVIYSGGFTYYTDSVKGRFTISRHNSKNTLYLQMNSLRAEDTAVYYCARYYYDTSDYWTFFDYWGQGTLVTVSS VL: EIVMTQSPATLSVSPGERATLSCRASQSVSSNLAWYQQKPGQAPRLLIYGASTRATGIPARFSGSGSGTEFTLTISSLQSGDFAVYYCQQYNNWPLTFGGGTKVEIN |  |  |  |  |  | 48 | 20800 |  | 600 |  |  | 65 | 6810 | 24.7 | 99 | 83 | 1.65e-08 | 182 | 100 | 0 |  |
| H4xH9037P (antibody, V domains shown, human IgG4 Fc with 2 or more amino acid changes (US20100331527); also called H4xH9037P2) VH: EVQLVESGGGLVQPGGSLRLSCAASGFTFDDYAMHWVRQAPGKGLEWVSGIGWSSGSIGYADSVKGRFTISRDNAKNSLYLQMDSLRPEDSALYYCAKAYTFMITLYFDYWGQGTLVTVSS VL: not shown | 24 | 3210 | 0.000897 | 280000 | 13 | 674 | 36400 | -4 |  | 104 | -4 | 78 | 8790 | 81.4 | 95 | 100 | 2.82e-09 | 195 |  |  | 100 nM Monkey PD-1-mFc Bound (RU) [9]: 58 RU; Kd [9]: 912 pM; koff [9]: 0.000137 s⁻¹; kon [9]: 150000 M⁻¹ s⁻¹; t1/2 [9]: 84 min; IC50 [11]: 890 pM |
| H2aM7780N (antibody, V domains shown, human variable regions, mouse IgG2a Fc; also called H2M7780N) VH: QVQLVESGGGVVQSGRSLRLSCAASGFTFSSYGMHWVRQAPGKGLEWVAVIWYDGSNIYYSDSVKGRFTISRANSKNTLYLQMNSLRAEDTAVYYCARPGHWNYFFEYWGQGTLVTVSS VL: DIQMTQSPSSLSASVGDRVTITCRASQSINNYLNWYQQKPGKAPKLLIYTASSLQSGVPSRFSGSGSGTDFTLTISSLQPEDFATYYCQQSYSTPPLTFGQGTQLEIK |  |  |  |  |  | 1690 | 18400 |  | 690 |  |  | 91 | 23700 | 73.8 | 100 | 94 | 6.52e-09 | 228 | 114 | -0.01 |  |
